# Assay results: the Immune Epitope Database (IEDB)
# Legend:
# [1] = molecular target: HLA-A*24:02; experiment: IEDB peptide-MHC binding, purified MHC/competitive/fluorescence; ≥ and ≤ were set here for values at or beyond the usual limits of such assays
# [2] = molecular target: HLA-B*44:02; experiment: IEDB peptide-MHC binding, purified MHC/competitive/radioactivity; filed as Kd, often an IC50 or EC50 that approximates it; ≥ and ≤ were set here for values at or beyond the usual limits of such assays; conditions: source organism: Dengue virus 2 Jamaica/1409/1983
# [3] = molecular target: HLA-B*44:03; experiment: as above
# [4] = molecular target: HLA-A*01:01; experiment: as above
# [5] = molecular target: HLA-A*23:01; experiment: as above
# [6] = molecular target: HLA-A*24:02; experiment: as above
# [7] = molecular target: HLA-A*26:01; experiment: as above
# [8] = molecular target: HLA-A*29:02; experiment: as above
# [9] = molecular target: HLA-A*30:02; experiment: as above
# [10] = molecular target: HLA-A*68:02; experiment: as above
# [11] = molecular target: HLA-A*03:01; experiment: as above; conditions: source organism: Vaccinia virus WR
# [12] = molecular target: HLA-A*11:01; experiment: as above; conditions: source organism: Vaccinia virus WR
# [13] = molecular target: HLA-A*31:01; experiment: as above; conditions: source organism: Vaccinia virus WR
# [14] = molecular target: HLA-A*33:01; experiment: as above; conditions: source organism: Vaccinia virus WR
# [15] = molecular target: HLA-A*68:01; experiment: as above; conditions: source organism: Vaccinia virus WR
# [16] = molecular target: HLA-A*26:01; experiment: IEDB peptide-MHC binding, purified MHC/direct/fluorescence; filed as Kd, often an IC50 or EC50 that approximates it; ≥ and ≤ were set here for values at or beyond the usual limits of such assays
# [17] = molecular target: HLA-A*02:01; experiment: IEDB peptide-MHC binding, purified MHC/competitive/fluorescence; ≥ and ≤ were set here for values at or beyond the usual limits of such assays; conditions: source organism: Sudan ebolavirus
# [18] = molecular target: HLA-B*40:01; experiment: IEDB peptide-MHC binding, purified MHC/competitive/radioactivity; filed as Kd, often an IC50 or EC50 that approximates it; ≥ and ≤ were set here for values at or beyond the usual limits of such assays
# [19] = molecular target: HLA-B*15:01; experiment: as above; conditions: source organism: Dengue virus 1 Brazil/97-11/1997
# [20] = molecular target: HLA-B*07:02; experiment: as above; conditions: source organism: Dengue virus 2 Jamaica/1409/1983
# [21] = molecular target: HLA-B*51:01; experiment: as above; conditions: source organism: Dengue virus 2 Jamaica/1409/1983
# [22] = source organism: Sudan ebolavirus
# [23] = source organism: Dengue virus 2 Jamaica/1409/1983
# [24] = source organism: SARS coronavirus Tor2
# [25] = source organism: Dengue virus 1 Brazil/97-11/1997
# [26] = source organism: Mammarenavirus whitewaterense
# [27] = source organism: Vaccinia virus WR
# [28] = source organism: Zaire ebolavirus
# [29] = source organism: Mammarenavirus juninense
# [30] = source organism: Mammarenavirus brazilense
# [31] = source organism: Mammarenavirus lassaense
sequence,measurement,setting,value
AEGVIAFLI,IC50,[1]; [22],0.441 µM
AEMEEALRG,Kd,[2],0.00465 µM
same,Kd,[3]; [23],0.0132 µM
DSFKEELDKY,Kd,[4]; [24],0.754 µM
same,Kd,[5]; [24],≥ 70 µM
same,Kd,[6]; [24],≥ 70.3 µM
same,Kd,[7]; [24],0.416 µM
same,Kd,[8]; [24],0.399 µM
same,Kd,[9]; [24],0.299 µM
DYRHYSASF,Kd,[4]; [24],≥ 41.8 µM
same,Kd,[5]; [24],0.0887 µM
same,Kd,[6]; [24],0.215 µM
same,Kd,[7]; [24],7.41 µM
same,Kd,[8]; [24],0.0257 µM
same,Kd,[9]; [24],4.34 µM
EAAAIFMTA,Kd,[10]; [25],0.000301 µM
EGCPKPHRL,Kd,[4]; [26],13.9 µM
same,Kd,[5]; [26],≥ 77.7 µM
same,Kd,[6]; [26],≥ 46.8 µM
same,Kd,[7]; [26],≥ 77.9 µM
same,Kd,[8]; [26],≥ 43.7 µM
same,Kd,[9]; [26],12.4 µM
EKEFLRYLL,IC50,[1]; source organism: Vaccinia virus,≥ 116 µM
ELMMATIGI,Kd,[10]; [23],0.00103 µM
ESRPFDLIKK,Kd,[11],0.236 µM
same,Kd,[12],0.0742 µM
same,Kd,[8]; [27],≥ 71.4 µM
same,Kd,[13],0.257 µM
same,Kd,[14],1 µM
same,Kd,[15],0.00214 µM
EYTYPDSLE,IC50,[1]; [28],≥ 190 µM
FVLALLAFF,Kd,[16]; source organism: West Nile virus,≥ 20 µM
GMEAQFLYLY,Kd,[4]; [24],0.181 µM
same,Kd,[5]; [24],≥ 46.4 µM
same,Kd,[6]; [24],≥ 57.4 µM
same,Kd,[7]; [24],12.3 µM
same,Kd,[8]; [24],0.0287 µM
same,Kd,[9]; [24],0.147 µM
GYQPYRVVVL,Kd,[4]; [24],≥ 70.4 µM
same,Kd,[5]; [24],0.0534 µM
same,Kd,[6]; [24],0.201 µM
same,Kd,[7]; [24],≥ 69.7 µM
same,Kd,[8]; [24],1.23 µM
same,Kd,[9]; [24],≥ 78.9 µM
HISRQRLTKY,Kd,[4]; [24],12.1 µM
same,Kd,[5]; [24],≥ 70 µM
same,Kd,[6]; [24],≥ 70.3 µM
same,Kd,[7]; [24],1.16 µM
same,Kd,[8]; [24],1.02 µM
same,Kd,[9]; [24],0.581 µM
HTKKEMRSF,Kd,[16]; source organism: Bacillus cereus NVH0597-99,0.015 µM
HWVPTSRTTW,Kd,[5]; [23],0.734 µM
same,Kd,[6]; [23],0.603 µM
IAWIPYFGP,IC50,[17],26.9 µM
same,IC50,[1]; [22],55.8 µM
IEAGRTLRVL,Kd,[18]; [23],0.17 µM
IENSTANVSL,Kd,[18]; source organism: Dengue virus 3 Martinique/1243/1999,0.00606 µM
ISHRPVVLT,IC50,[1]; source organism: Variola virus,1.37 µM
ISKIPGGNMY,Kd,[4]; [25],≥ 27.8 µM
same,Kd,[9]; [25],0.0154 µM
same,Kd,[19],0.137 µM
IVNAQPKCN,IC50,[1]; [28],8.88 µM
KWADNNCYL,Kd,[4]; [24],≥ 78.1 µM
same,Kd,[5]; [24],3.41 µM
same,Kd,[6]; [24],4.92 µM
same,Kd,[7]; [24],≥ 77.9 µM
same,Kd,[8]; [24],≥ 83.3 µM
same,Kd,[9]; [24],≥ 78.9 µM
LDHVNTLHF,Kd,[4]; [29],19.5 µM
same,Kd,[5]; [29],5.07 µM
same,Kd,[6]; [29],10.5 µM
same,Kd,[7]; [29],≥ 77.9 µM
same,Kd,[8]; [29],≥ 63.8 µM
same,Kd,[9]; [29],≥ 46.5 µM
LEENVEVEI,Kd,[18]; [23],0.0109 µM
LEIGKLPQHL,Kd,[18]; [25],0.145 µM
LGYCMIRWL,IC50,[1]; [27],≥ 78.9 µM
LWEGSPGKFW,Kd,[5]; [25],2.25 µM
LWEKLCYLI,Kd,[5]; [30],0.265 µM
same,Kd,[6]; [30],2.88 µM
same,Kd,[8]; [30],4.44 µM
LYNSTFFSTF,Kd,[4]; [24],10.3 µM
same,Kd,[5]; [24],0.000965 µM
same,Kd,[6]; [24],0.000635 µM
same,Kd,[7]; [24],0.834 µM
same,Kd,[8]; [24],0.622 µM
same,Kd,[9]; [24],1.16 µM
MAIGIVSILL,Kd,[10]; [25],0.015 µM
MCPFLFLAV,Kd,[4]; [31],0.492 µM
same,Kd,[5]; [31],≥ 51.1 µM
same,Kd,[6]; [31],≥ 77.5 µM
same,Kd,[7]; [31],≥ 77.9 µM
same,Kd,[8]; [31],1.69 µM
same,Kd,[9]; [31],≥ 31.2 µM
MGLLCLTLF,Kd,[5]; source organism: Dengue virus 4 Philippines/H241/1956,0.451 µM
MILPMSRAF,IC50,[1]; source organism: Mus musculus,1.75 µM
MPVTHSSAAQ,Kd,[20],≥ 20.1 µM
same,Kd,[21],≥ 69.6 µM
MVNGVVRLL,Kd,[10]; [23],0.0258 µM
NEVHTWTEQY,Kd,[3]; [25],0.137 µM
NIDATSTGNY,Kd,[4]; [24],0.11 µM
same,Kd,[5]; [24],≥ 70 µM
same,Kd,[6]; [24],≥ 70.3 µM
same,Kd,[7]; [24],0.897 µM
same,Kd,[8]; [24],5.52 µM
same,Kd,[9]; [24],1.42 µM
